{
  "source": "patent US6495144",
  "key": {"[1]": {"target": "GAL4-CBF1 (KLV249AAA) (UniProt P04386)", "experiment": "cell-based or functional assay"}, "[2]": {"target": "CBF1/RBPJk (UniProt Q06330)", "sequence (Q06330 whole entry)": "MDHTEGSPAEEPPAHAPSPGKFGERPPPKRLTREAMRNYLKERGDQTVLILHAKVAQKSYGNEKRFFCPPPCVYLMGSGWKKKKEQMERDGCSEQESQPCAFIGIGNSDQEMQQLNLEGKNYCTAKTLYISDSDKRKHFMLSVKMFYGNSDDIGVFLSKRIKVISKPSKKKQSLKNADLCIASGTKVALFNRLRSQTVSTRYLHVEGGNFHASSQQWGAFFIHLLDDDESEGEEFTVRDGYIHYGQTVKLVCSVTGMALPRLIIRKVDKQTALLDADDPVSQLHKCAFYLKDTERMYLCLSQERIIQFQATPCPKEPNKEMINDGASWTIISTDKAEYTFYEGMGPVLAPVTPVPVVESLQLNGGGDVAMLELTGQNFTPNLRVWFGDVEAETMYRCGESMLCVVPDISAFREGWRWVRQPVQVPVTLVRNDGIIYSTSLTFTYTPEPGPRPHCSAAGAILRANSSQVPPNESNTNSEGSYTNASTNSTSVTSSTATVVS", "experiment": "cell-based or functional assay"}, "[3]": {"system": "CBF1 + EBNA2 PI326SR (CR6) PI326SR (Homo sapiens / Epstein-Barr virus)", "experiment": "EMSA", "conditions": "supershifted complex relative to wild-type"}, "[4]": {"system": "CBF1 + EBNA2 del252-309,398-425 del252-309,del398-425 (Homo sapiens / Epstein-Barr virus)", "experiment": "EMSA", "conditions": "no supershifted complex"}, "[5]": {"system": "CBF1 + EBNA2 WW323SR (CR6) WW323SR (Homo sapiens / Epstein-Barr virus)", "experiment": "EMSA", "conditions": "no supershifted complex"}, "[6]": {"system": "CBF1 + EBNA2 del376-425 del376-425 (Homo sapiens / Epstein-Barr virus)", "experiment": "EMSA", "conditions": "supershifted complex relative to wild-type"}, "[7]": {"system": "CBF1 + EBNA2 GP320SR (CR6) GP320SR (Homo sapiens / Epstein-Barr virus)", "experiment": "EMSA", "conditions": "supershifted complex relative to wild-type"}, "[8]": {"system": "CBF1 + EBNA2 del344-357 del344-357 (Homo sapiens / Epstein-Barr virus)", "experiment": "EMSA", "conditions": "supershifted complex relative to wild-type"}, "[9]": {"system": "CBF1 + EBNA2 del343-425 del343-425 (Homo sapiens / Epstein-Barr virus)", "experiment": "EMSA", "conditions": "no stable supershifted complex; partially competed CBF1 complex"}, "[10]": {"system": "CBF1 + EBNA2 LGL389SRT (CR7) LGL389SRT (Homo sapiens / Epstein-Barr virus)", "experiment": "EMSA", "conditions": "supershifted complex relative to wild-type"}, "[11]": {"system": "CBF1 + EBNA2 II307SR (CR5) II307SR (Homo sapiens / Epstein-Barr virus)", "experiment": "EMSA", "conditions": "supershifted complex relative to wild-type"}, "[12]": {"system": "CBF1 + EBNA2 SR360VD (PKC) SR360VD (Homo sapiens / Epstein-Barr virus)", "experiment": "EMSA", "conditions": "supershifted complex relative to wild-type"}, "[13]": {"system": "CBF1 + type A EBNA2 252-425 complex (Homo sapiens / Epstein-Barr virus)", "experiment": "EMSA", "conditions": "supershifted EBNA2/CBF1 complex, reference; EBNA2 tethered through CBF1"}, "[14]": {"system": "CBF1 + EBNA2 del252-366 del252-366 (Homo sapiens / Epstein-Barr virus)", "experiment": "EMSA", "conditions": "no supershifted complex"}, "[15]": {"target": "CBF1/RBPJk (UniProt Q06330)", "experiment": "EMSA supershift with heparin-agarose purified CBF1 and Cp CBF1 site probe; phosphoimager, relative to wild-type EBNA2(252-425)"}, "[16]": {"target": "GAL4CBF1 (EEF233AAA) (UniProt P04386)", "experiment": "cell-based or functional assay"}, "[17]": {"target": "GAL4-CBF1 (wild-type) (UniProt P04386)", "experiment": "cell-based or functional assay"}},
  "data": [
    {"substance": "EBNA2 (effector of Table 2) (from UniProt P12978 1-487)", "values": [
      {"measurement": "Relative CAT Activity (relative to CAT reporter alone)", "setting": "[1]", "result": 21}
    ]},
    {"substance": "full-length EBNA2 WW323SR (CR6) (from UniProt P12978 1-487)", "values": [
      {"measurement": "% Transactivation", "setting": "[2]", "result": 0, "unit": "%"}
    ]},
    {"substance": "full-length EBNA2 LGL389SRT (CR7) (from UniProt P12978 1-487)", "values": [
      {"measurement": "% Transactivation", "setting": "[2]", "result": 100, "unit": "%"}
    ]},
    {"substance": "full-length EBNA2 II307SR (CR5) (from UniProt P12978 1-487)", "values": [
      {"measurement": "% Transactivation", "setting": "[2]", "result": 20, "unit": "%"}
    ]},
    {"substance": "Cp CBF1 binding site 30-bp probe", "values": [
      {"measurement": "binding signal", "setting": "[3]", "result": 5, "unit": "%"},
      {"measurement": "binding signal", "setting": "[4]", "result": "< 1", "unit": "%"},
      {"measurement": "binding signal", "setting": "[5]", "result": "< 1", "unit": "%"},
      {"measurement": "binding signal", "setting": "[6]", "result": 10, "unit": "%"},
      {"measurement": "binding signal", "setting": "[7]", "result": 90, "unit": "%"},
      {"measurement": "binding signal", "setting": "[8]", "result": 100, "unit": "%"},
      {"measurement": "binding signal", "setting": "[9]", "result": "< 1", "unit": "%"},
      {"measurement": "binding signal", "setting": "[10]", "result": 50, "unit": "%"},
      {"measurement": "binding signal", "setting": "[11]", "result": 20, "unit": "%"},
      {"measurement": "binding signal", "setting": "[12]", "result": 60, "unit": "%"},
      {"measurement": "binding signal", "setting": "[13]", "result": 100, "unit": "%"},
      {"measurement": "binding signal", "setting": "[14]", "result": "< 1", "unit": "%"}
    ]},
    {"substance": "EBNA2 252-425 del376-425 (from UniProt P12978 252-375)", "values": [
      {"measurement": "% Complex formation", "setting": "[15]", "result": 10, "unit": "%"}
    ]},
    {"substance": "EBNA2 252-425 del252-309,398-425 (from UniProt P12978 310-397)", "values": [
      {"measurement": "% Complex formation", "setting": "[15]", "result": "< 1", "unit": "%"}
    ]},
    {"substance": "EBNA2 252-425 II307SR (CR5) (from UniProt P12978 252-425)", "values": [
      {"measurement": "% Complex formation", "setting": "[15]", "result": 20, "unit": "%"}
    ]},
    {"substance": "Notch2IC (from UniProt Q9QW30 1789-2471) (receptor)", "values": [
      {"measurement": "Relative CAT Activity (relative to CAT reporter alone)", "setting": "[16]", "result": 4.5},
      {"measurement": "Relative CAT Activity (relative to CAT reporter alone)", "setting": "[17]", "result": 5.7},
      {"measurement": "Relative CAT Activity (relative to CAT reporter alone)", "setting": "[1]", "result": 1.3}
    ]},
    {"substance": "wild-type EBNA2 (full-length, type A) (from UniProt P12978 1-487)", "values": [
      {"measurement": "% Transactivation", "setting": "[2]", "result": 100, "unit": "%"}
    ]},
    {"substance": "EBNA2 252-425 del344-357 (from UniProt P12978 252-343; P12978 358-425)", "values": [
      {"measurement": "% Complex formation", "setting": "[15]", "result": 100, "unit": "%"}
    ]},
    {"substance": "Notch1IC (from UniProt Q01705 1751-2531) (receptor)", "values": [
      {"measurement": "Relative CAT Activity (relative to CAT reporter alone)", "setting": "[16]", "result": 4.2},
      {"measurement": "Relative CAT Activity (relative to CAT reporter alone)", "setting": "[17]", "result": 4.9},
      {"measurement": "Relative CAT Activity (relative to CAT reporter alone)", "setting": "[1]", "result": 1.3}
    ]},
    {"substance": "full-length EBNA2 del344-357 (from UniProt P12978 1-487)", "values": [
      {"measurement": "% Transactivation", "setting": "[2]", "result": 150, "unit": "%"}
    ]},
    {"substance": "full-length EBNA2 PI326SR (CR6) (from UniProt P12978 1-487)", "values": [
      {"measurement": "% Transactivation", "setting": "[2]", "result": 2, "unit": "%"},
      {"measurement": "transactivation at the highest levels of effector DNA (Cp-CAT, DG75 cells)", "setting": "[2]", "result": 20, "unit": "%"}
    ]},
    {"substance": "full-length EBNA2 SR360VD (PKC) (from UniProt P12978 1-487)", "values": [
      {"measurement": "% Transactivation", "setting": "[2]", "result": 110, "unit": "%"}
    ]},
    {"substance": "EBNA2 252-425 del343-425 (from UniProt P12978 252-342)", "values": [
      {"measurement": "% Complex formation", "setting": "[15]", "result": "< 1", "unit": "%"}
    ]},
    {"substance": "full-length EBNA2 GP320SR (CR6) (from UniProt P12978 1-487)", "values": [
      {"measurement": "% Transactivation", "setting": "[2]", "result": 120, "unit": "%"}
    ]},
    {"substance": "EBNA2 252-425 del252-366 (from UniProt P12978 367-425)", "values": [
      {"measurement": "% Complex formation", "setting": "[15]", "result": "< 1", "unit": "%"}
    ]}
  ]
}
